From paper PMC4930772 come the findings set out here.

This experiment deals with PP2A B56γ1 30-380 (UniProt Q13362). Briefly: ITC. (Isothermal titration calorimetry measures the heat released or taken up as one component is titrated into another.)
The mark [1] stands for this setting: reference: wild type, sites T680.
Setting [2] is: reference: wild type, sites S670.
Where [3] appears, read: reference: wild type, sites S676.

As to “BubR1 647-720 (from UniProt O60566) 3D (S670D/S676D/T680D)”, the KD result (reference: wild type, sites S670,S676,T680) is “same; reference 2.91 ± 0.50”.

Regarding “BubR1 647-720 (from UniProt O60566) AAAA (E678A/T680A/H681A)”, the KD entry under setting [1] is reported as “weaker; reference 2.91 ± 0.50”.

Regarding “BubR1 647-720 (from UniProt O60566) DDT (S670D/S676D)”, the KD result (reference: wild type, sites S670,S676) is “same; reference 2.91 ± 0.50”.

For the substance “BubR1 647-720 (from UniProt O60566) DSD (S670D/T680D)”, for the setting “reference: wild type, sites S670,T680”, the KD result is given as “same; reference 2.91 ± 0.50”.

Turning to “BubR1 647-720 (from UniProt O60566) DST (S670D)”, the KD entry under setting [2] is “same; reference 2.91 ± 0.50”.

With “BubR1 647-720 (from UniProt O60566) S670A”, under setting [2], the KD entry is on record as “same; reference 2.91 ± 0.50”.

On to “BubR1 647-720 (from UniProt O60566) S676A”, for which the KD entry under setting [3] is given as “same; reference 2.91 ± 0.50”.

As for “BubR1 647-720 (from UniProt O60566) SDD (S676D/T680D)”, the KD result (reference: wild type, sites S676,T680) is reported as “same; reference 2.91 ± 0.50”.

For the substance “BubR1 647-720 (from UniProt O60566) SDT (S676D)”, the KD result under setting [3] is “same; reference 2.91 ± 0.50”.

With “BubR1 647-720 (from UniProt O60566) SSD (T680D)”, under setting [1], the KD result is “same; reference 2.91 ± 0.50”.

For the substance “BubR1 667-681 (from UniProt O60566) B56γ1 R188A”, for the setting “reference: B56γ1 wild type, sites S670”, the KD entry is on record as “weaker; reference 0.25 ± 0.06”.

For “BubR1 667-681 (from UniProt O60566) pS670 15-mer”, the KD entry (reference: unphosphorylated 15-mer, sites S670) is reported as “stronger; reference 2.80 ± 0.30”.

On to “BubR1 667-681 (from UniProt O60566) pS676 15-mer”, for which the KD result (reference: unphosphorylated 15-mer, sites S676) is on record as “stronger; reference 2.80 ± 0.30”.

Consider “BubR1 667-681 (from UniProt O60566) pS676/pT680 15-mer”, for which the KD entry (reference: pS676 15-mer, sites T680) is on record as “same; reference 0.69 ± 0.11” and the KD entry (reference: unphosphorylated 15-mer, sites S676,T680) is recorded as “stronger; reference 2.80 ± 0.30”.
